Reference: the RNAGym collection of RNA variant scans (doi:10.7554/elife.90254)

B1: LINE1-full (parent)
chain: UACGUAGGUGGUUUUCCCCUGAUAGUGCUAAGGGGGCCUGGAAGUUUGGACUGGGCAGAGCUCAACACAGCGUGGCAAAGUGGCUGUGGCUAGACUGCCUCUCUGGAUUCCUCGUCACUCAGCAGGGCAUCUCUGAGAGAAAUGCC

Variants of: B1
Test: self-cleavage, relative activity (ratio to wild type); higher = more cleavage; in vitro, sequencing; the parent is a self-cleaving ribozyme

In order of falling self-cleavage:
1. UACGUAGGUGGUUUUCCCCUGAUAGUGCUAAGGGGGCCUGGAAGUUUGGACUGGGCAGAGCUCAACACAGCGAGGCAAAGUGGCUGUGGCUAGACUGCCUCUCUGGAUUCCUCGUCACUUAGCAGGGCAUCUCUGAGAGAAAUGCC  1.79
2. UACGUAGGUGGUUUUCCCCUGAUAGUGCUAAGGGGGCCUGGAAGUUUGGACUGGGCAGAGCUCAACACAGCGUGGCAAAGUGGCUGUGGCUAGACUGCCUCUCUGGAUUCCUCGUCGCUCAGCAGGGCAUCUCCGAGAGAAAUGCC  1.73
3. UACGCAGGUGGUUUUCCCCUGAUAGUGCUAAGGGGGCCUGGAAGUUUGGACUGGGCAGAGCUCAACACAGCGUGGCAAAGAGGCUGUGGCUAGACUGCCUCUCUGGAUUCCUCGUCACUCAGCAGGGCAUCUCUGAGAGAAAUGCC  1.56
4. UACGUAGGUGGUUUUCCCCUGAUAGUCCUAAGGGGGCCUGGAAGUUUGGACUGGGCAGAGCUCAACACAGCGUGGCAAAGUGGCUGUGGCUAGACUGCCUCUCUGGAUUCCCCGUCACUCAGCAGGGCAUCUCUGAGAGAAAUGCC  1.53
5. UACGUAGGUGGUUUUCCCCUGAUAGUGCUAAGGGGGCCUGGAAGAUUGGACUGGGCAGAGCUCAACACAGCGUGGCAAAGUGGCUGUGGCUAGACUGCCUCUCUGGAUUCCUCGUCACUCAGCAGGGCAUCUCCGAGAGAAAUGCC  1.49
6. UACGUAGGUGGUGUCCCCCUGAUAGUGCUAAGGGGGCCUGGAAGUUUGGACUGGGCAGAGCUCAACACAGCGUGGCAAAGUGGCUGUGGCUAGACUGCCUCUCUGGAUUCCUCGUCACUCAGCAGGGCAUCUCUGAGAGAAAUGCC  1.47
7. UACGUAGGUGGUUUUCCCCUGAUAGCGCUAAGGGGGCUUGGAAGUUUGGACUGGGCAGAGCUCAACACAGCGUGGCAAAGUGGCUGUGGCUAGACUGCCUCUCUGGAUUCCUCGUCACUCAGCAGGGCAUCUCUGAGAGAAAUGCC  1.29
8. UACGUAGGUGGUUUUCCCCUGAUAGUGCUAAGGGGGCCUGGAAGUCUGGACUGGGCAGAGCUCAACACAGCGUGGCAAGGUGGCUGUGGCUAGACUGCCUCUCUGGAUUCCUCGUCACUCAGCAGGGCAUCUCUGAGAGAAAUGCC  1.29
9. UACGUAGGUGGUUUUCCCCUGAUUGUGCUAAGGGGGCCUGGAAGUUUGGACUGGGCAGAGCUCAACACAGCGUGGCAAAGUGGCUGUGGCUAGACUGCCUCUCUGGAUUCCUCGUCACUCAGCAGGGCUUCUCUGAGAGAAAUGCC  1.26
10. UACGUAGGUGGUUUUCCCCUGAUAGUGCUAAGGGGGCCUGGAAGUUUGGUCAGGGCAGAGCUCAACACAGCGUGGCAAAGUGGCUGUGGCUAGACUGCCUCUCUGGAUUCCUCGUCACUCAGCAGGGCAUCUCUGAGAGAAAUGCC  1.17
11. UACGUAGGUGGUUUUCCCCUGAUAGUGCUAAGGGGGCCUGGAAGUUUGGACUGGGCAGAGCUCAACACAGCGUGGCAAAGUGGCUGUGGCUAGACUGCCUCUCUGGAUUCCUCGUCACUCAGCGGGGCAUCUCUGGGAGAAAUGCC  1.14
12. UACGUAGGUGGUUUUCCCCUGAUAGUCCUAAGGGGGCCUGGAAGUUUGGACUGGGCAGAGCUCAACACAGCGUGGCAAAGUGGCUGUGGCUAGACUGCCCCUCUGGAUUCCUCGUCACUCAGCAGGGCAUCUCUGAGAGAAAUGCC  1.13
13. UACGUAGGUGGUGUUCCCCUGAUAGUGCUAAGGGGGCCUGGAAGUUUGGACUGGGCAGAGCUCAACACAGCGUGGCAAAGUGGCUGUGGCUAGACUGCCUCUCUGGGUUCCUCGUCACUCAGCAGGGCAUCUCUGAGAGAAAUGCC  1.12
14. UACGUAGGUGGUUCUCCCCUGAUAGUGCUAAGGGGGCCUGGAAGUUUGGACUGGGCAGAGCUCAACACAGCGGGGCAAAGUGGCUGUGGCUAGACUGCCUCUCUGGAUUCCUCGUCACUCAGCAGGGCAUCUCUGAGAGAAAUGCC  1.05
15. UACGUAGGUGGUUUUCCCCUGAUAGUGCUAAGGGGGACUGGAAGUUUGGACUGGGCAGAGCUCAACACAGCGUGGCAAAGUGGCUGUGGCUAGACUGCCUCUCUGGAUUCCUCGUCACUCAGCAGGGCAUCUCUGAGAGAAAUGCC  1.04
16. UACGUAGGUGGUUUUCCCCUGAUAGUGCUAAGGGGGCCUGGAAGUUUGGACAGGGCAGAGCUCAACACAGCGUGGCAAAGUGGCUGUGGCUAGACUGCCUCACUGGAUUCCUCGUCACUCAGCAGGGCAUCUCUGAGAGAAAUGCC  1.03
17. UACGUAGGUGGUUUUCCCUUGAUAGUGCUAAGGGGGCCUGGAAGUUUGGAUUGGGCAGAGCUCAACACAGCGUGGCAAAGUGGCUGUGGCUAGACUGCCUCUCUGGAUUCCUCGUCACUCAGCAGGGCAUCUCUGAGAGAAAUGCC  1.01
18. UACGUAGGUGGUUUUCCCCUGAUAGUGCUAAGGGGGCCUGGAAGUUAGGACUGGGCAGAGCUCAACACAGCGUGGCAAAGUGGCUGUGGCUAGACUGCCUCUCUGGAUUUCUCGUCACUCAGCAGGGCAUCUCUGAGAGAAAUGCC  0.95
19. UACGUAGGUGGUUUUCCCCUGAUAGAGCUAAGGGGGCCUGGAAGUUUGGACUGGGCAGAGCUCAACACAGCGUGGCAAAGUUGCUGUGGCUAGACUGCCUCUCUGGAUUCCUCGUCACUCAGCAGGGCAUCUCUGAGAGAAAUGCC  0.93
20. UACGUAGGUGGUUUUCCCCUGAUAGUGCUAAGGGGGCCUGGAAGUUUGGACCGGGCAGAGCUCAACACAGCGUGGCAAAGUGGCUGUGGCUAGACUGCCUCUCUGGAUUCCUCGUCACUCAGCAGGACAUCUCUGAGAGAAAUGCC  0.93
21. UACGUAGGUGGUUUUCCCCUGAUAGUGCUAAGUGGGCCUGGAAGUUUGGACUGGGCAGAGCUCAACACAGCGUGGCAAAGUGGCUGUGGCUAGACUGCCUCUCUGGAUUCCUCGUCACUCAGCAGGGCAUCUCUGAGAGAAGUGCC  0.88
22. UACGUAGGUGGUUUUCCCCUGAUAGUGCUAAGGGGGGCUGGAAGUUUGGACUGGGCAGAGCUCAACACAGCGUGGCAAGGUGGCUGUGGCUAGACUGCCUCUCUGGAUUCCUCGUCACUCAGCAGGGCAUCUCUGAGAGAAAUGCC  0.85
23. UGCGUAGGUGGUUUUCCCCUGAUAGUGCUAAGGGGGCCUGGAAGUUUGGACUGGGCAGAGCUCAACACAGCGUGGCAAAGUGGCUGUGGCUAGACUGCCUCUCUGGAUUCCUCGUCACUCAGCAGGGCAUCUCUGAGUGAAAUGCC  0.69
24. UACGUAGGUGGUUUUCCCCUGAUAGUGCUAAGGGGGCCUGGAAGUUUGGACUGGGCAGAGCUCAACACAGCGCGGCAAAGUGGCUGUGGCUAGUCUGCCUCUCUGGAUUCCUCGUCACUCAGCAGGGCAUCUCUGAGAGAAAUGCC  0.69
25. UACGUAGGUGGUUUUCCCCUGAUAGUGCUAAGGGGGCCUGGAAGUUUGGACUGGGCAGAGCUCAACACAGCGUGGCAAAGUGGCUGUGGCUAGACUGUCUCUCUGGGUUCCUCGUCACUCAGCAGGGCAUCUCUGAGAGAAAUGCC  0.46
26. UACGUAGGUGGUUUUCCCCUGAUAGUGCUAAGGGGGCCCGGAAGUUUGGACUGGGCAGAGCUCAACACAGCGUGGCAAAGUGGCUGUGGCAAGACUGCCUCUCUGGAUUCCUCGUCACUCAGCAGGGCAUCUCUGAGAGAAAUGCC  0.39
27. UUCGUAGGUGGUUUUUCCCUGAUAGUGCUAAGGGGGCCUGGAAGUUUGGACUGGGCAGAGCUCAACACAGCGUGGCAAAGUGGCUGUGGCUAGACUGCCUCUCUGGAUUCCUCGUCACUCAGCAGGGCAUCUCUGAGAGAAAUGCC  0.32
28. UACGUAGGUGGUUUUCCCCUGAUAGUGCUAAGGGGGCCUGGAAGUUUGGACAGGGCAGAGCUCAACACAGCGUGGCAAAGUGGCGGUGGCUAGACUGCCUCUCUGGAUUCCUCGUCACUCAGCAGGGCAUCUCUGAGAGAAAUGCC  0.22
29. UACGUAGGUGGUUUUCCCCUGAUAGUGCUAAGGGGGCCUGGAAGUUUGGACUGGACAGAGCUCAACACAGCGUGGCAAAGUGGCUGUGGCUAGACUGCCUCUCUGGAUUCCUCUUCACUCAGCAGGGCAUCUCUGAGAGAAAUGCC  0.22
30. UACGUAGGUGGUUUUCCCCUGAUAGUGCUAAGGGGGCCUGGAAGUUUGGACUGGGCAGAGCUCAACACAGCGUGGCAAAGUGGCUGUGGCAAGACUGCCUCUCUGGAUUCCUCGUCACUCAGCAGGGCAUCUCAGAGAGAAAUGCC  0.18
31. UACGUAGGUGGUUUUCCCCUGAUAGUGCUAAGGGGGCCUGGAAGUUUGGACUGGGCAGAGCUCUACGCAGCGUGGCAAAGUGGCUGUGGCUAGACUGCCUCUCUGGAUUCCUCGUCACUCAGCAGGGCAUCUCUGAGAGAAAUGCC  0.15
32. UACGUAGGUGGUUUUCCCCUGAUAGUGAUAAGGGGGCCUGGAAGUUUGGACUGGGCAGAGCUCAACACAGCGUGGCAAAGUGGCUGUGGCUGGACUGCCUCUCUGGAUUCCUCGUCACUCAGCAGGGCAUCUCUGAGAGAAAUGCC  0.12
33. UACGUAGGUGGUUUUCCCCUGAUAGUGUUAAGGGGGCCUGGAAGUUUGGACUGGGCAGGGCUCAACACAGCGUGGCAAAGUGGCUGUGGCUAGACUGCCUCUCUGGAUUCCUCGUCACUCAGCAGGGCAUCUCUGAGAGAAAUGCC  0.09
34. UACGUAGGUGGUUUUCCCCUGAUAGUGCUAAGGGGGCCUGGAAGUUUGGACUGGGCAGAGCUCAACACAGCGUGGCAAAGUGGCUAUGGCUAGACUGCCUCUCUGGAUUCCUCGUCACUCAGCAGGGCAUCUCUGAGAGAAAUGCC  0.08
35. UAUGUAGGUGGUUUUCCCCUGAUAGUGCUAAGGGGGCCUGGAAGUUUGGACUGGGCAGAGCUCAACACAGCGUGGCAAAGUGGCUGUGGCUAGACAGCCUCUCUGGAUUCCUCGUCACUCAGCAGGGCAUCUCUGAGAGAAAUGCC  0.07
36. UACGUAGGUGGUUUUCCCCUGAUAGUGCUAAGGGGGCCUGGAAGUUUGGACUGGGCAGAUCUCAACACAGCGUGGCAAGGUGGCUGUGGCUAGACUGCCUCUCUGGAUUCCUCGUCACUCAGCAGGGCAUCUCUGAGAGAAAUGCC  0.05
37. UACGUAGGUGGUUUUCCCCUGAUAGUGCUAAGGGGGCCUGGAAGUUUGGACUGGGCAGAGCUCAACACAGCGUGGCGAAGUGGCUGUGGCUAUACUGCCUCUCUGGAUUCCUCGUCACUCAGCAGGGCAUCUCUGAGAGAAAUGCC  0.05
38. UACGUAGGUGGUUUUCCCCUGAUAGUGCUAAGGGGGCCUGGAAGUUUGGACUGGGCAGAGGUCAACUCAGCGUGGCAAAGUGGCUGUGGCUAGACUGCCUCUCUGGAUUCCUCGUCACUCAGCAGGGCAUCUCUGAGAGAAAUGCC  0.04
39. UACGUAGGUGGUUUUCCCCUGAUAGUGCUAAGGGGGCCUGGAAGUUUGGACUGGGCAGAGCUCAACACAGCGUGGCAAAGUGGCUGUGGAUAGACUGCGUCUCUGGAUUCCUCGUCACUCAGCAGGGCAUCUCUGAGAGAAAUGCC  0.02
